Experiment [1] addresses HLA-B*35:01 expressed in C1R cells (C1R.B*35:01) (human | human (endogenous in C1R)).
Experiment [2] addresses HLA-B*07:02 expressed in C1R cells (C1R.B*07:02) (human | human (endogenous in C1R)).
Experiment [3] deals with HLA-B*08:01 expressed in C1R cells (C1R.B*08:01) (human | human (endogenous in C1R)).

In the case of influenza B virus NS1_(260-268) peptide, the IFN-γ+TNF+ CD8+ T cells (expanded with pool J) after restimulation with peptide-pulsed C1R.B*35:01; donors responding in experiment [1] is 5 of 6 donors.
For influenza B virus NP_(233-244) peptide, the IFN-γ+TNF+ CD8+ T cells (expanded with pool H) after restimulation with peptide-pulsed C1R.B*07:02; donors responding in experiment [2] was 9 of 10 donors.
In the case of influenza B virus NP_(30-38) peptide, the IFN-γ+TNF+ CD8+ T cells (expanded with pool H) after restimulation with peptide-pulsed C1R.B*07:02; donors responding in experiment [2] was 7 of 10 donors. In addition, in experiment [3], the IFN-γ+TNF+ CD8+ T cells (expanded with pool I) after restimulation with peptide-pulsed C1R.B*08:01; donors responding was 5 of 9 donors.
For the substance influenza B virus NP_(479-487) peptide, in experiment [3], the IFN-γ+TNF+ CD8+ T cells (expanded with pool I) after restimulation with peptide-pulsed C1R.B*08:01; donors responding was 4 of 9 donors.
As to influenza B virus HA_(255-263) peptide, in experiment [2], the IFN-γ+TNF+ CD8+ T cells (expanded with pool H) after restimulation with peptide-pulsed C1R.B*07:02; donors responding is 2 of 10 donors.
Same read-out and setting: to influenza B virus NS1_(196-206) peptide belongs 6 of 10 donors.
Turning to influenza B virus NP_(92-99) peptide, the IFN-γ+TNF+ CD8+ T cells (expanded with pool I) after restimulation with peptide-pulsed C1R.B*08:01; donors responding in experiment [3] is 6 of 9 donors.
Regarding influenza B virus HA_(231-239) peptide, the IFN-γ+TNF+ CD8+ T cells (expanded with pool J) after restimulation with peptide-pulsed C1R.B*35:01; donors responding in experiment [1] was 3 of 6 donors.
